Experimental data: patent publication US20120123096 (published 2012)

Key:
Assay in all cases: ELONA
Details in all cases: stem-loop (predicted)
[1] = target: Botulinum neurotoxin type A light chain (50 kDa zinc endopeptidase) (UniProt P0DPI1 P0DPI1:2-448)
[2] = target: Botulinum neurotoxin type B light chain (UniProt B1INP5 B1INP5:2-441)
[3] = target: Botulinum neurotoxin type B holotoxin (BoNT B HT) (UniProt B1INP5;B1INP5 B1INP5:2-441,B1INP5:442-1291)
[4] = target: Botulinum neurotoxin type A holotoxin (BoNT A HT) (UniProt P0DPI1;P0DPI1 P0DPI1:2-448,P0DPI1:449-1296)
Chain of Botulinum neurotoxin type A holotoxin (BoNT A HT) (P0DPI1 2-448, chain 1 of 2): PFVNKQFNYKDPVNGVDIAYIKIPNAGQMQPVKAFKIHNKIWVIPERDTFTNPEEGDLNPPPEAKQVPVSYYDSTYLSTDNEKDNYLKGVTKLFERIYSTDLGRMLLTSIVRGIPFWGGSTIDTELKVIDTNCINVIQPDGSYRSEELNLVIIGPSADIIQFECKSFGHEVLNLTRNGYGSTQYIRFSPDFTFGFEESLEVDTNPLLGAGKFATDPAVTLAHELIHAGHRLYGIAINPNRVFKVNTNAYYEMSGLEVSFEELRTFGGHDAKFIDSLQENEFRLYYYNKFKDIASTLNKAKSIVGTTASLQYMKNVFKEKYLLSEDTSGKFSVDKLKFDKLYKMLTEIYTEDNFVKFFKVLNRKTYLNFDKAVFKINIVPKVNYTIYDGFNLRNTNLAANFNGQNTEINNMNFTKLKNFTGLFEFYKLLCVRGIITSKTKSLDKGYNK
Chain of Botulinum neurotoxin type A holotoxin (BoNT A HT) (P0DPI1 449-1296, chain 2 of 2): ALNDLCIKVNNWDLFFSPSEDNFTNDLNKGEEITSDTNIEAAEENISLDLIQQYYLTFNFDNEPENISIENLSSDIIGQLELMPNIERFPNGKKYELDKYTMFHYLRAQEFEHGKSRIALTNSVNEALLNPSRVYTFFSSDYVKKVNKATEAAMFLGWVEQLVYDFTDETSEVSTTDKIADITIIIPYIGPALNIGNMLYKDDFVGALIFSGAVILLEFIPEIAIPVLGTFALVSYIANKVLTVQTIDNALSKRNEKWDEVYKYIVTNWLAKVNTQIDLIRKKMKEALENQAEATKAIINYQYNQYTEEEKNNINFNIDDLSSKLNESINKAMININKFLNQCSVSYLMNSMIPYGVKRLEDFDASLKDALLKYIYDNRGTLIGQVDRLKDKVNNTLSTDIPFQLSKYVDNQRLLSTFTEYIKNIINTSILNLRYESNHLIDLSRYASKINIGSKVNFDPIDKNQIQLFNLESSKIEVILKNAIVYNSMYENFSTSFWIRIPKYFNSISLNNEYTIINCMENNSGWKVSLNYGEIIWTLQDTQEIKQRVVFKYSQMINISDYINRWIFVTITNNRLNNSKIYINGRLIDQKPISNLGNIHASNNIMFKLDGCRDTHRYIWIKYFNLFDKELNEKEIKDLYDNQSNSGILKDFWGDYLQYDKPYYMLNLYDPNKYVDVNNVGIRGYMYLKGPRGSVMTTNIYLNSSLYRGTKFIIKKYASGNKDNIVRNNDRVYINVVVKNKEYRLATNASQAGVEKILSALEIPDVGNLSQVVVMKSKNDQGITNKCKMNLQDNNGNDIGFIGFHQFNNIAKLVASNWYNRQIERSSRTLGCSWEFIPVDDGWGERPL

Measured: binding result

Chain of Botulinum neurotoxin type B holotoxin (BoNT B HT) (B1INP5 2-441, chain 1 of 2): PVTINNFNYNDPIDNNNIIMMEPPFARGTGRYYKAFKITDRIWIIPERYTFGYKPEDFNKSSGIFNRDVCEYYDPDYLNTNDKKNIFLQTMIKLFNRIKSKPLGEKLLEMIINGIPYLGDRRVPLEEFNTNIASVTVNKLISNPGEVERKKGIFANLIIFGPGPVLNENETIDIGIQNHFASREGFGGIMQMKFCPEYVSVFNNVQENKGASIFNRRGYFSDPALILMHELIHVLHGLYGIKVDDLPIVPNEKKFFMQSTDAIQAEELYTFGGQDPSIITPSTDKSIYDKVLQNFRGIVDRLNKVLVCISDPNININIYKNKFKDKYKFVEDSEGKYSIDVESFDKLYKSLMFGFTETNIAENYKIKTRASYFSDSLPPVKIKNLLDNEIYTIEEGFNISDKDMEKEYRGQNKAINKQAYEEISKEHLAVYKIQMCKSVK
Chain of Botulinum neurotoxin type B holotoxin (BoNT B HT) (B1INP5 442-1291, chain 2 of 2): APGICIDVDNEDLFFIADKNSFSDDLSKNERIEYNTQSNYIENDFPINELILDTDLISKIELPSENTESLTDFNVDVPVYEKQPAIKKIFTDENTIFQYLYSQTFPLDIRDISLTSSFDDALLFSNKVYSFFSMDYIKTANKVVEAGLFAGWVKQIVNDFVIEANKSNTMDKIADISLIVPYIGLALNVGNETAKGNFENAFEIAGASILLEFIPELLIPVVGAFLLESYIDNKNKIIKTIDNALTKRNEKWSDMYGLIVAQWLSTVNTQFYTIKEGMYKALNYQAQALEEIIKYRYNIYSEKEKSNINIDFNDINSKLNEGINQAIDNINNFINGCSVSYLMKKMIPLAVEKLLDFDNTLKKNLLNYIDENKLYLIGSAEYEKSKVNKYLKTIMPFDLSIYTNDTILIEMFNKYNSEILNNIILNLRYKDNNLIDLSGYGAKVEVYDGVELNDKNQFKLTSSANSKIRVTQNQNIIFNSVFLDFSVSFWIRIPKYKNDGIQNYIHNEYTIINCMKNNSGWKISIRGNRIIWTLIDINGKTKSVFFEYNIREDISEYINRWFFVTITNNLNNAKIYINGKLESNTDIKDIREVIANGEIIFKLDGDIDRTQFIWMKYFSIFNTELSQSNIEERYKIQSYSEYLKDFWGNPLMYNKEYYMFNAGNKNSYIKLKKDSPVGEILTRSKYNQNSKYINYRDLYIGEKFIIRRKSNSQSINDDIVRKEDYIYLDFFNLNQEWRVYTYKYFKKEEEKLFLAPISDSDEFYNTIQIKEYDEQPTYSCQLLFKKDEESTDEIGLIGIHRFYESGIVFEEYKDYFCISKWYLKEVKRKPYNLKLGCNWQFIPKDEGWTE
Chain of Botulinum neurotoxin type B light chain (B1INP5 2-441, one chain of several): as the sequence (B1INP5 2-441, chain 1 of 2) above
Chain of Botulinum neurotoxin type A light chain (50 kDa zinc endopeptidase) (P0DPI1 2-448, one chain of several): as the sequence (P0DPI1 2-448, chain 1 of 2) above

B1: BoNT A/B LC aptamer (ssDNA)
DNA: CATCCGTCACACCTGCTCTGATCAGGGAAGACGCCAACACTGGTGTTGGCTCCCGTATCA
binds: all assays above

B2: BoNT A/B HT aptamer (ssDNA)
DNA: CATCCGTCACACCTGCTCTGCTATCACATGCCTGCTGAAGTGGTGTTGGCTCCCGTATCA
binds: all assays above
